{"source": "patent US20240398993A1", "about": "“SMALL MOLECULE-REGULATED GENE EXPRESSION SYSTEM” (Outpace Bio, Inc., priority 2021, published 2024)", "molecules": {"B1": {"name": "ANR-SPOP: E3 ligase SPOP fused to the apo-NS3a reader ANR, SEQ ID NO: 157, expressed from IPV18 or TFV23 (protein)", "chain": "GELDELVYLLDGPGYDPIHSDVVTRGGSHLFNFSGSSGGSGVNISGQNTMNMVKVPECRLADELGGLWENSRFTDCCLCVAGQEFQAHKAILAARSPVFSAMFEHEMEESKKNRVEINDVEPEVFKEMMCFIYTGKAPNLDKMADDLLAAADKYALERLKVMCEDALCSNLSVENAAEILILADLHSADQLKTQAVDFINYHASDVLETSGWKSMVVSHPHLVAEAYRSLASAQCPFLGPPRKRLKQS", "modifications": "Synthetic polypeptide ANR-SPOP"}, "B2": {"name": "ZFHIV2: zinc finger DNA binding domain fused to NS3a (NS3a-ZFHIV2, SEQ ID NO: 71) (protein)", "chain": "KKKGSVVIVGRINLSGDTAYAQQTRGEEGCQETSQTGRDKNQVEGEVQIVSTATQTFLATSINGVLWTVYHGAGTRTIASPKGPVTQMYTNVDKDLVGWQAPQGSRSLTPCTCGSSDLYLVTRHADVIPVRRRGDSRGSLLSPRPISYLKGSAGGPLLCPAGHAVGIFRAAVSTRGVAKAVDFIPVESLETTMRSPGSGAAASGGGGSGGGGSGGTPPHERPFQCRICMRNFSNNAMLVRHTRTHTGEKPFQCRICMRNFSLSQTLQRHLRTHTGEKPFQCRICMRNFSMQGNLSRHLKTHLRGS", "modifications": "Synthetic polypeptide NS3a-ZFHIV2"}, "B3": {"name": "p65: transcriptional activation domain fused to DNCR2 (SEQ ID NO: 51) (protein)", "chain": "SSDEEEARELIERAKEAAERAQEAAERTGDPRVRELARELKRLAQEAAEEVKRDPSSSDVNEALKLIVEAIEAAVDALEAAERTGDPEVRELARELVRLAVEAAEEVQRNPSSSDVNEALHSIVYAIEAAIFALEAAERTGDPEVRELARELVRLAVEAAEEVQRNPSSRNVEHALMRIVLAIYLAEENLREAEESGDPEKREKARERVREAVERAEEVQRDPSGWLNHSGGGSGVDGSPKKKRKVGSVLPQAPAPAPAPAMVSALAQAPAPVPVLAPGPPQAVAPPAPKPTQAGEGTLSEALLQLQFDDEDLGALLGNSTDPAVFTDLASVDNSEFQQLLNQGIPVAPHTTEPMLMEYPEAITRLVTGAQRPPDPAPAPLGAPGLPNGLLSGDEDFSSIADMDFSALL", "modifications": "Synthetic polypeptide DNCR2-p65mini"}, "B4": {"name": "p65-HSF1: transcriptional activation domain of all-human components fused to DNCR2 (SEQ ID NO: 52) (protein)", "chain": "SSDEEEARELIERAKEAAERAQEAAERTGDPRVRELARELKRLAQEAAEEVKRDPSSSDVNEALKLIVEAIEAAVDALEAAERTGDPEVRELARELVRLAVEAAEEVQRNPSSSDVNEALHSIVYAIEAAIFALEAAERTGDPEVRELARELVRLAVEAAEEVQRNPSSRNVEHALMRIVLAIYLAEENLREAEESGDPEKREKARERVREAVERAEEVQRDPSGWLNHSGGGSGVDGSPKKKRKVGSVLPQAPAPAPAPAMVSALAQAPAPVPVLAPGPPQAVAPPAPKPTQAGEGTLSEALLQLQFDDEDLGALLGNSTDPAVFTDLASVDNSEFQQLLNQGIPVAPHTTEPMLMEYPEAITRLVTGAQRPPDPAPAPLGAPGLPNGLLSGDEDFSSIADMDFSALLSGSGGFSVDTSALLDLFSPSVTVPDMSLPDLDSSLASIQELLSPQEPPRPPEAENSSPDSGKQLVHYTAQPLFLLDPGSVDTGSNDLPVLFELGEGSYFSEGDGFAEDPTISLLTGSEPPKAKDPTVS", "modifications": "Synthetic polypeptide DNCR2-p65mini-HSF1"}}, "key": {"HEK293 cells": {"tested_on": "HEK293 cells", "assay": "Danoprevir-induced EGFP reporter expression in transduced HEK293 cells, flow cytometry", "assay_type": "cell-based"}, "Jurkat cells": {"tested_on": "Jurkat cells", "assay": "Danoprevir-induced GFP/EGFP reporter expression in transduced Jurkat cells, flow cytometry", "assay_type": "cell-based", "settings": "for induced GFP expression (gMFI): 500 nM danoprevir 24 hours, ZF DBD-NS3a / DNCR2-TAD panel, YB_TATA minimal promoter, FIG. 11"}, "[1]": {"settings": "titration of danoprevir, IPV16/TFV1 versus IPV16/TFV23, FIG. 18"}}, "note": "Entries after “also recorded” stand apart in the source; their conditions may differ."}
{"molecule": "CC(C)(C)OC(=O)N[C@H]1CCCCC/C=C\\[C@@H]2C[C@@]2(C(=O)NS(=O)(=O)C2CC2)NC(=O)[C@@H]2C[C@@H](OC(=O)N3Cc4cccc(F)c4C3)CN2C1=O", "note": "[danoprevir, (2R,6S,12Z,13aS,14aR,16aS)-14a-[(Cyclopropylsulfonyl)carbamoyl]-6-({[(2-methyl-2-propanyl)oxy]carbonyl}amino)-5,16-dioxo-1,2,3,5,6,7,8,9,10,11,13a,14,14a,15,16,16a-hexadecahydrocyclopropa[e]pyrrolo[1,2-a][1,4]diazacyclopentadecin-2-yl 4-fluoro-1,3-dihydro-2H-isoindole-2-carboxylate, reference compound]", "values": [{"measurement": "danoprevir EC50 of EGFP expression", "setting": "HEK293 cells; [1]", "result": "equivalent"}, {"measurement": "maximal EGFP expression levels", "setting": "HEK293 cells; [1]", "result": "equivalent"}]}
{"molecule": "B1", "values": [{"measurement": "maximal danoprevir-induced EGFP expression, element expressed inducibly from the inducible promoter vector", "setting": "HEK293 cells; 100 nM danoprevir, HEK293 cells, plot 1725", "result": "reduced the maximal danoprevir-induced EGFP expression"}, {"measurement": "danoprevir-induced EGFP expression, element expressed from the transcription factor vector", "setting": "HEK293 cells; 100 nM danoprevir, HEK293 cells, plot 1730", "result": "maintaining high danoprevir-induced expression"}, {"measurement": "background EGFP expression level, fold lower than the system without ANR-SPOP", "setting": "HEK293 cells; DMSO, IPV16/TFV23 versus IPV16/TFV1, plot 1800", "result": "about 3 times"}, {"measurement": "background (leaky) EGFP expression, DMSO", "setting": "HEK293 cells; HEK293 cells, compared to wild type cells, FIG. 16-18", "result": "effectively removed any leaky background expression of EGFP; also recorded: indistinguishable from wild type HEK293 cells"}]}
{"molecule": "B2", "values": [{"measurement": "induced GFP expression (gMFI)", "setting": "Jurkat cells", "result": "highest induced GFP levels"}, {"measurement": "induction of GFP expression (gMFI), 12×RE versus 6×RE", "setting": "Jurkat cells; DNCR2-VPRmini, FIG. 12", "result": "lower induction"}, {"measurement": "induction of GFP expression (gMFI), leucine zipper (LZ) between NS3a and ZF versus direct fusion", "setting": "Jurkat cells; DNCR2-VPRmini, TFV19, TFV20, FIG. 12", "result": "higher maximal induction"}]}
{"molecule": "B3", "values": [{"measurement": "induced GFP expression (gMFI)", "setting": "Jurkat cells", "result": "very weak"}]}
{"molecule": "B4", "values": [{"measurement": "induced GFP expression (gMFI)", "setting": "Jurkat cells", "result": "moderate induction levels"}]}
